Reference: PMC5473807, “Distribution and kinetics of the Kv1.3-blocking peptide HsTX1[R14A] in experimental rats” (Scientific Reports, 2017)
Where two headings read alike, the source gives them in different places.

Experiment: In vivo biodistribution by organ and tissue extraction
Parameters: species or system male Wistar rats
Conditions: male, Wistar, total radioactivity, rat, mean ± SD; for tissue uptake dose at 48 h / SUV at 48 h: 2880 min p.i.; for tissue uptake dose at 5 min / SUV at 5 min: 5 min p.i.; for tissue uptake dose at 1 h / SUV at 1 h: 60 min p.i.; for tissue uptake dose at 4 h / SUV at 4 h: 240 min p.i.; for tissue uptake dose at 24 h / SUV at 24 h: 1440 min p.i.
Experimental: The present study includes data obtained from a total of 50 animals. Four animals (body weight 227 ± 10 g) for each time point were injected intravenously into a tail vein or subcutaneously with approximately 0.3 MBq ([…]) [^64Cu]Cu-NOTA-HsTX1[R14A] conjugate in 0.5 mL electrolyte solution E-153 (Serumwerk Bernburg, Germany). Animals were euthanised at 5, 60, 240, 1440 and 2880 min post-injection. Blood and the major organs were collected, weighed, and counted in a cross-calibrated γ-counter (Isomed 1000, Isomed GmbH, Dresden) and Wallac WIZARD Automatic Gamma Counter (PerkinElmer, Germany). The radioactivity of the tissue samples was decay-corrected and calibrated by comparing the counts in tissue with the counts in aliquots of the injected radiotracer that had been measured in the γ-counter at the same time. The activity in the selected organs was expressed as percent-injected dose per organ (% ID) and the activity concentration in tissues and organs as standardised uptake value (SUV). Values are quoted as mean ± standard error of mean (SEM) for each group of four animals.

[1] = lung, iv, 0.3 MBq, i.v., n=4, read-out: Lung activity amount
[2] = lung, iv, 0.3 MBq, i.v., n=8, read-out: Lung activity amount
[3] = lung, iv, i.v., n=4, read-out: Lung SUV
[4] = lung, iv, i.v., n=8, read-out: Lung SUV
[5] = lung, sc, 0.3 MBq, s.c., n=4, read-out: Lung activity amount
[6] = lung, sc, s.c., n=4, read-out: Lung SUV
[7] = muscle, iv, i.v., n=4, read-out: Muscle SUV
[8] = muscle, iv, i.v., n=8, read-out: Muscle SUV
[9] = muscle, sc, s.c., n=4, read-out: Muscle SUV
[10] = pancreas, iv, 0.3 MBq, i.v., n=4, read-out: Pancreas SUV
[11] = pancreas, iv, 0.3 MBq, i.v., n=4, read-out: Pancreas activity amount
[12] = pancreas, iv, 0.3 MBq, i.v., n=8, read-out: Pancreas SUV
[13] = pancreas, iv, 0.3 MBq, i.v., n=8, read-out: Pancreas activity amount
[14] = pancreas, sc, 0.3 MBq, s.c., n=4, read-out: Pancreas SUV
[15] = pancreas, sc, 0.3 MBq, s.c., n=4, read-out: Pancreas activity amount
[16] = spleen, iv, 0.3 MBq, i.v., n=4, read-out: Spleen SUV
[17] = spleen, iv, 0.3 MBq, i.v., n=4, read-out: Spleen activity amount
[18] = spleen, iv, 0.3 MBq, i.v., n=8, read-out: Spleen SUV
[19] = spleen, iv, 0.3 MBq, i.v., n=8, read-out: Spleen activity amount
[20] = spleen, sc, 0.3 MBq, s.c., n=4, read-out: Spleen SUV
[21] = spleen, sc, 0.3 MBq, s.c., n=4, read-out: Spleen activity amount
[22] = stomach, iv, 0.3 MBq, i.v., n=4, read-out: Stomach activity amount
[23] = stomach, iv, 0.3 MBq, i.v., n=8, read-out: Stomach activity amount
[24] = stomach, sc, 0.3 MBq, s.c., n=4, read-out: Stomach activity amount
[25] = testes, iv, 0.3 MBq, i.v., n=4, read-out: Testes SUV

In the case of CSCC[C@@H]1NC(=O)[C@@H]2CSSC[C@H](NC(=O)[C@H](CO)NC(=O)[C@H](C)NC(=O)COCCOCCNC(=O)CN3CCN(CC(=O)O)CCN(CC(=O)O)CC3)C(=O)N[C@@H](CCCNC(=N)N)C(=O)N[C@@H]([C@@H](C)O)C(=O)N3CCC[C@H]3C(=O)N[C@@H](CCCCN)C(=O)N[C@@H](CC(=O)O)C(=O)N[C@H]3CSSC[C@H](NC(=O)[C@H](CCCCN)NC(=O)[C@H](CCCNC(=N)N)NC(=O)[C@H](CC(N)=O)NC1=O)C(=O)N[C@@H](CCCCN)C(=O)N[C@H]1CSSC[C@H](NC(=O)[C@@H]4CCCN4C(=O)[C@H](CC(=O)O)NC(=O)[C@H](C)NC3=O)C(=O)N[C@@H](C)C(=O)N[C@@H](CCCCN)C(=O)N[C@@H](CCC(=O)O)C(=O)N[C@@H]([C@@H](C)O)C(=O)NCC(=O)N[C@@H](CSSC[C@@H](C(N)=O)NC(=O)[C@H](CCCNC(=N)N)NC(=O)[C@H](CC(N)=O)NC1=O)C(=O)N1CCC[C@H]1C(=O)N[C@@H](Cc1ccc(O)cc1)C(=O)NCC(=O)N[C@@H](CCCCN)C(=O)N2 [[^64Cu]Cu-NOTA-HsTX1[R14A], metal not drawn], the tissue uptake dose at 48 h (liver, sc, 0.3 MBq, s.c., n=4, read-out: Liver activity amount) is reported as 7.85 ± 0.49 %ID, the tissue uptake dose at 5 min [1] is reported as 1.44 ± 0.18 %ID and the tissue uptake dose at 1 h [2] is reported as 1.24 ± 0.3 %ID. For the same compound, the tissue uptake dose at 4 h [1] was 0.92 ± 0.12 %ID, the tissue uptake dose at 24 h [2] was 0.5 ± 0.05 %ID and the tissue uptake dose at 48 h [1] was 0.46 ± 0.06 %ID. For the same compound, the SUV at 5 min [3] was 2.87 ± 0.32 SUV, the SUV at 1 h [4] was 1.98 ± 0.17 SUV and the SUV at 4 h [3] was 1.24 ± 0.1 SUV. The SUV at 24 h [4] was 0.78 ± 0.13 SUV, the SUV at 48 h [3] was 0.55 ± 0.03 SUV and the tissue uptake dose at 1 h [5] was 1.64 ± 0.24 %ID. It also gave a tissue uptake dose at 4 h [5] of 1.04 ± 0.08 %ID, a tissue uptake dose at 24 h [5] of 0.49 ± 0.02 %ID and a tissue uptake dose at 48 h [5] of 0.33 ± 0.01 %ID. The SUV at 1 h [6] was 2.1 ± 0.33 SUV, the SUV at 4 h [6] was 1.32 ± 0.12 SUV and the SUV at 24 h [6] was 0.63 ± 0.02 SUV. The SUV at 48 h [6] was 0.47 ± 0.01 SUV, the SUV at 5 min [7] was 0.43 ± 0.03 SUV and the SUV at 1 h [8] was 0.17 ± 0.06 SUV. It also gave an SUV at 4 h [7] of 0.07 SUV, an SUV at 24 h [8] of 0.18 ± 0.02 SUV and an SUV at 48 h [7] of 0.19 ± 0.01 SUV. It also gave an SUV at 1 h [9] of 0.15 ± 0.02 SUV, an SUV at 4 h [9] of 0.08 ± 0.01 SUV and an SUV at 24 h [9] of 0.19 ± 0.01 SUV. The SUV at 48 h [9] was 0.16 SUV, the SUV at 5 min [10] was 0.64 ± 0.09 SUV and the tissue uptake dose at 5 min [11] was 0.11 ± 0.03 %ID. The SUV at 1 h [12] was 0.3 ± 0.04 SUV, the tissue uptake dose at 1 h [13] was 0.06 ± 0.02 %ID and the SUV at 4 h [10] was 0.24 ± 0.01 SUV. For the same compound, the tissue uptake dose at 4 h [11] was 0.08 %ID, the SUV at 24 h [12] was 0.62 ± 0.16 SUV and the tissue uptake dose at 24 h [13] was 0.2 ± 0.16 %ID. The SUV at 48 h [10] was 0.32 ± 0.01 SUV, the tissue uptake dose at 48 h [11] was 0.08 ± 0.01 %ID and the SUV at 1 h [14] was 0.29 ± 0.03 SUV. For the same compound, the tissue uptake dose at 1 h [15] was 0.11 ± 0.03 %ID, the SUV at 4 h [14] was 0.25 SUV and the tissue uptake dose at 4 h [15] was 0.08 ± 0.01 %ID. For the same compound, the SUV at 24 h [14] was 0.48 ± 0.02 SUV, the tissue uptake dose at 24 h [15] was 0.15 ± 0.01 %ID and the SUV at 48 h [14] was 0.28 ± 0.02 SUV. For the same compound, the tissue uptake dose at 48 h [15] was 0.07 ± 0.01 %ID, the SUV at 5 min [16] was 4.06 ± 0.6 SUV and the tissue uptake dose at 5 min [17] was 0.83 ± 0.12 %ID. The SUV at 1 h [18] was 3.42 ± 0.42 SUV, the tissue uptake dose at 1 h [19] was 0.79 ± 0.11 %ID and the SUV at 4 h [16] was 2.4 ± 0.1 SUV. For the same compound, the tissue uptake dose at 4 h [17] was 0.67 ± 0.06 %ID, the SUV at 24 h [18] was 0.83 ± 0.26 SUV and the tissue uptake dose at 24 h [19] was 0.18 ± 0.04 %ID. It also gave an SUV at 48 h [16] of 0.56 ± 0.05 SUV, a tissue uptake dose at 48 h [17] of 0.16 ± 0.01 %ID and an SUV at 1 h [20] of 4 ± 0.21 SUV. It also gave a tissue uptake dose at 1 h [21] of 1.08 ± 0.03 %ID, an SUV at 4 h [20] of 2.84 ± 0.25 SUV and a tissue uptake dose at 4 h [21] of 0.75 ± 0.03 %ID. For the same compound, the SUV at 24 h [20] was 0.59 ± 0.03 SUV, the tissue uptake dose at 24 h [21] was 0.15 %ID and the SUV at 48 h [20] was 0.47 ± 0.04 SUV. The tissue uptake dose at 48 h [21] was 0.15 ± 0.01 %ID, the tissue uptake dose at 5 min [22] was 0.67 ± 0.09 %ID and the tissue uptake dose at 1 h [23] was 1.28 ± 1.2 %ID. It also gave a tissue uptake dose at 4 h [22] of 1.52 ± 1.06 %ID, a tissue uptake dose at 24 h [23] of 1.56 ± 1.04 %ID and a tissue uptake dose at 48 h [22] of 1.46 ± 0.37 %ID. For the same compound, the tissue uptake dose at 1 h [24] was 1.14 ± 0.45 %ID, the tissue uptake dose at 4 h [24] was 0.6 ± 0.03 %ID and the tissue uptake dose at 24 h [24] was 0.82 ± 0.07 %ID. For the same compound, the tissue uptake dose at 48 h [24] was 1.72 ± 1.02 %ID, the SUV at 5 min [25] was 0.24 ± 0.03 SUV and the tissue uptake dose at 5 min (testes, iv, 0.3 MBq, i.v., n=4, read-out: Testes activity amount) was 0.27 ± 0.05 %ID. The SUV at 1 h (testes, iv, 0.3 MBq, i.v., n=8, read-out: Testes SUV) was 0.16 ± 0.01 SUV, the tissue uptake dose at 1 h (testes, iv, 0.3 MBq, i.v., n=8, read-out: Testes activity amount) was 0.23 ± 0.02 %ID and the SUV at 4 h [25] was 0.13 ± 0.01 SUV.
